Sequences and labels used below:
T1: human GIP receptor (human, UniProt P48546 22-466)
T1 sequence (looked up): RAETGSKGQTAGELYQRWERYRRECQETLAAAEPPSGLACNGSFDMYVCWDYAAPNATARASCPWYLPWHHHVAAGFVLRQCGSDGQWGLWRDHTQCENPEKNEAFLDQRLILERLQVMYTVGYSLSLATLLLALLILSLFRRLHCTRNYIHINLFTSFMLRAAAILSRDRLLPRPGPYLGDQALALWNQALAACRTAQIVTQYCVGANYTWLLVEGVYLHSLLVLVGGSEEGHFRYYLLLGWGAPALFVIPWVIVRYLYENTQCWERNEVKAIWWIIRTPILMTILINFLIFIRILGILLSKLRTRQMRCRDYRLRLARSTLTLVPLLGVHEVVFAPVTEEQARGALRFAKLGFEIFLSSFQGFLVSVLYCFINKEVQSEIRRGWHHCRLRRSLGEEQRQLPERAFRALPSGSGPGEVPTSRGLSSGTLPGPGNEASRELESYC

T2: human GIP receptor (human) (UniProt P48546)
T2 sequence (looked up): T1 sequence (looked up)

B1: Example 360 (peptide)
peptide: YXEGTXTSDXXIXLDXKAQXKFIXXLIEGGPSSGAPPPS
modifications: Y-Aib-EGT-αMeF(2F)-TSD-4Pal-Aib-I-αMeL-LD-Orn-K((2-[2-(2-Amino-ethoxy)-ethoxy]-acetyl)-(γ-Glu)-(10-(4-carboxyphenoxy)decanoyl))AQ-Aib-K((2-[2-(2-Amino-ethoxy)-ethoxy]-acetyl)-(γ-Glu)-(10-(4-carboxyphenoxy)decanoyl))FI-(D-Glu)-αMeY-LIEGGPSSGAPPPS-NH2
B2: Example 372 (peptide)
peptide: B1 peptide with X10Y
modifications: Y-Aib-EGT-αMeF(2F)-TSDY-Aib-I-αMeL-LD-Orn-K((2-[2-(2-Amino-ethoxy)-ethoxy]-acetyl)-(γ-Glu)-(10-(4-carboxyphenoxy)decanoyl))AQ-Aib-K((2-[2-(2-Amino-ethoxy)-ethoxy]-acetyl)-(γ-Glu)-(10-(4-carboxyphenoxy)decanoyl))FI-(D-Glu)-αMeY-LIEGGPSSGAPPPS-NH2
B3: Example 384 (peptide)
peptide: B1 peptide
modifications: Y-Aib-EGT-αMeF(2F)-TSD-4Pal-Aib-I-αMeL-LD-Orn-K((2-[2-(2-Amino-ethoxy)-ethoxy]-acetyl)2-CO-(CH2)12-CO2H)AQ-Aib-K((2-[2-(2-Amino-ethoxy)-ethoxy]-acetyl)2-CO-(CH2)12-CO2H)FI-(D-Glu)-αMeY-LIEGGPSSGAPPPS-NH2
B4: Example 378 (peptide)
peptide: B1 peptide with X10V
modifications: Y-Aib-EGT-αMeF(2F)-TSDV-Aib-I-αMeL-LD-Orn-K((2-[2-(2-Amino-ethoxy)-ethoxy]-acetyl)-(γ-Glu)-(10-(4-carboxyphenoxy)decanoyl))AQ-Aib-K((2-[2-(2-Amino-ethoxy)-ethoxy]-acetyl)-(γ-Glu)-(10-(4-carboxyphenoxy)decanoyl))FI-(D-Glu)-αMeY-LIEGGPSSGAPPPS-NH2
B5: Example 373 (peptide)
peptide: B1 peptide with X10Y, K21E, E28K
modifications: Y-Aib-EGT-αMeF(2F)-TSDY-Aib-I-αMeL-LD-Orn-K((2-[2-(2-Amino-ethoxy)-ethoxy]-acetyl)-(γ-Glu)-(10-(4-carboxyphenoxy)decanoyl))AQ-Aib-EFI-(D-Glu)-αMeY-LIK((2-[2-(2-Amino-ethoxy)-ethoxy]-acetyl)-(γ-Glu)-(10-(4-carboxyphenoxy)decanoyl))GGPSSGAPPPS-NH2
B6: Example 366 (peptide)
peptide: B1 peptide with X10Y
modifications: Y-Aib-EGT-αMeF(2F)-TSDY-Aib-I-αMeL-LD-Orn-K((2-[2-(2-Amino-ethoxy)-ethoxy]-acetyl)-(γ-Glu)-CO-(CH2)12-CO2H)AQ-Aib-K((2-[2-(2-Amino-ethoxy)-ethoxy]-acetyl)-(γ-Glu)-CO-(CH2)12-CO2H)FI-(D-Glu)-αMeY-LIEGGPSSGAPPPS-NH2
B7: Example 385 (peptide)
peptide: B1 peptide with X10Y
modifications: Y-Aib-EGT-αMeF(2F)-TSDY-Aib-I-αMeL-LD-Orn-K((2-[2-(2-Amino-ethoxy)-ethoxy]-acetyl)2-CO-(CH2)12-CO2H)AQ-Aib-K((2-[2-(2-Amino-ethoxy)-ethoxy]-acetyl)2-CO-(CH2)12-CO2H)FI-(D-Glu)-αMeY-LIEGGPSSGAPPPS-NH2

Numbering of substitutions follows the chain as printed. *1 amine or outer side, *2 acyl side, *3 side chain or, on linkers, in order; H or OH if unused. Where no end group is shown, it is not given here. Side-chain parts run from the residue outwards. [ ]: non-standard residue; d: D form. The star is where a group is joined. Decanoyl(10-(4-HOOC-PhO)) = O=C(O)c1ccc(OCCCCCCCCCC(=O)*)cc1; αMePhe(2-F) = C[C@](N)(Cc1ccccc1F)C(=O)O; γGlu = O=C(O)[C@H](CCC(=O)[*:2])N[*:1]; αMeY = C[C@](N)(Cc1ccc(O)cc1)C(=O)O; αMeL = CC(C)C[C@](C)(N)C(=O)O; Orn = NCCC[C@H](N)C(=O)O; AEEA = NCCOCCOCC(=O)O; Aib = CC(C)(N)C(=O)O Some results are limits rather than exact numbers.

In the first assay the target is human GLP-1 receptor (human, UniProt P43220 24-463). In words: cell-based or functional assay.
For the molecule Y[Aib]EGT[αMePhe(2-F)]TSDV[Aib]I[αMeL]LD[Orn]K([AEEA-γGlu-Decanoyl(10-(4-HOOC-PhO))])AQ[Aib]EFI[dE][αMeY]LIK([AEEA-γGlu-Decanoyl(10-(4-HOOC-PhO))])GGPSSGAPPPS-NH2 [Example 379], the “cAMP EC50 (1.0% HSA)” value turned out to be 48.5 nM.

Take B1: the “cAMP EC50 (1.0% HSA)” value came to 28.2 nM.

Consider B2, for which the “cAMP EC50 (1.0% HSA)” value turned out to be 38 nM.

With B3, the “cAMP EC50 (1.0% HSA)” value was 5.32 nM.

Turning to B4, the “cAMP EC50 (1.0% HSA)” value is 47.7 nM.

On to B5, for which the “cAMP EC50 (1.0% HSA)” value came to 37.4 nM.

As to B6, the “cAMP EC50 (1.0% HSA)” value worked out at 96.2 nM.

Consider B7, for which the “cAMP EC50 (1.0% HSA)” value was found to be 10.6 nM and the “cAMP Emax (1.0% HSA)” value came out at 112%.

In a further assay the target is human glucagon receptor (human, UniProt P47871 26-477). Kind of assay: cell-based or functional assay.
Chain of human glucagon receptor (P47871 26-477): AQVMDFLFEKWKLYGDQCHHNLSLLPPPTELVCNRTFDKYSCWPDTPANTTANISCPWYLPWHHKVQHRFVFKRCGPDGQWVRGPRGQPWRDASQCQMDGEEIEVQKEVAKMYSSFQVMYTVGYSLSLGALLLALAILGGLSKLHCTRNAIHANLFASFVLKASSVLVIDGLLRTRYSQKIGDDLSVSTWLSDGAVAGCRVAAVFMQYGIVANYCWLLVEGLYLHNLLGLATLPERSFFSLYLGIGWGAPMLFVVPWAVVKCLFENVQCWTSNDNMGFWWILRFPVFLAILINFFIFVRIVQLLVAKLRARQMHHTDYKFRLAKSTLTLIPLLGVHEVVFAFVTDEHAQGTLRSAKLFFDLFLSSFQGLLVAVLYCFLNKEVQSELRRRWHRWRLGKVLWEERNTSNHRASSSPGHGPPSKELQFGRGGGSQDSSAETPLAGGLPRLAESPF
Consider Y[Aib]EGT[αMePhe(2-F)]TSDV[Aib]I[αMeL]LD[Orn]K([AEEA-γGlu-Decanoyl(10-(4-HOOC-PhO))])AQ[Aib]EFI[dE][αMeY]LIK([AEEA-γGlu-Decanoyl(10-(4-HOOC-PhO))])GGPSSGAPPPS-NH2 [Example 379], for which the “cAMP EC50 (1.0% HSA)” value was greater than 9950 nM.

For the molecule B1, the “cAMP EC50 (1.0% HSA)” value was greater than 9950 nM.

With B2, the “cAMP EC50 (1.0% HSA)” value was greater than 9950 nM.

On to B3, for which the “cAMP EC50 (1.0% HSA)” value was greater than 9950 nM.

As for B4, the “cAMP EC50 (1.0% HSA)” value is greater than 9950 nM.

Regarding B5, the “cAMP EC50 (1.0% HSA)” value was greater than 9950 nM.

Regarding B6, the “cAMP EC50 (1.0% HSA)” value is greater than 9950 nM.

Turning to B7, the “cAMP EC50 (1.0% HSA)” value was greater than 9950 nM.

In the next assay the target is T1, human GIP receptor. In words: cell-based or functional assay.
As for Y[Aib]EGT[αMePhe(2-F)]TSDV[Aib]I[αMeL]LD[Orn]K([AEEA-γGlu-Decanoyl(10-(4-HOOC-PhO))])AQ[Aib]EFI[dE][αMeY]LIK([AEEA-γGlu-Decanoyl(10-(4-HOOC-PhO))])GGPSSGAPPPS-NH2 [Example 379], the “cAMP EC50 (1.0% HSA)” value was 11.6 nM and the “cAMP Emax (1.0% HSA)” value stood at 90%.

B1: the “cAMP EC50 (1.0% HSA)” value was determined as 1.91 nM.

In the case of B2, the “cAMP EC50 (1.0% HSA)” value was 3.75 nM and the “cAMP Emax (1.0% HSA)” value is 90.6%.

Turning to B3, the “cAMP EC50 (1.0% HSA)” value amounted to 0.457 nM.

For B4, the “cAMP EC50 (1.0% HSA)” value came to 7.46 nM and the “cAMP Emax (1.0% HSA)” value was determined as 81.2%.

B5: the “cAMP EC50 (1.0% HSA)” value amounted to 2.84 nM.

For B6, the “cAMP EC50 (1.0% HSA)” value stood at 3.14 nM and the “cAMP Emax (1.0% HSA)” value was found to be 95.9%.

Turning to B7, the “cAMP EC50 (1.0% HSA)” value is 0.558 nM and the “cAMP Emax (1.0% HSA)” value is 83.5%.

For another assay, the target named is T2, human GIP receptor (human). In words: cell-based or functional assay.
On to Y[Aib]EGT[αMePhe(2-F)]TSDV[Aib]I[αMeL]LD[Orn]K([AEEA-γGlu-Decanoyl(10-(4-HOOC-PhO))])AQ[Aib]EFI[dE][αMeY]LIK([AEEA-γGlu-Decanoyl(10-(4-HOOC-PhO))])GGPSSGAPPPS-NH2 [Example 379], for which the cAMP EC50 amounted to 0.0167 nM and the cAMP Emax came out at 97.5%.

B1: the cAMP EC50 was found to be 0.0121 nM and the cAMP Emax came out at 106%.

The molecule B2 gave a cAMP EC50 of 0.0112 nM and a cAMP Emax of 97.3%.

In turn, B3 displayed a cAMP EC50 of 0.0124 nM and a cAMP Emax of 94.5%.

B4 yielded a cAMP EC50 of 0.0132 nM and a cAMP Emax of 93.5%.

In turn, B5 yielded a cAMP EC50 of 0.0152 nM and a cAMP Emax of 101%.

Molecule B6 displayed a cAMP EC50 of 0.0162 nM and a cAMP Emax of 108%.

Turning to B7, the cAMP EC50 is 0.0154 nM and the cAMP Emax is 95.2%.

A further assay deals with hGLP-1R (Homo sapiens, UniProt P43220). Kind of assay: cell-based or functional assay.
Take Y[Aib]EGT[αMePhe(2-F)]TSDV[Aib]I[αMeL]LD[Orn]K([AEEA-γGlu-Decanoyl(10-(4-HOOC-PhO))])AQ[Aib]EFI[dE][αMeY]LIK([AEEA-γGlu-Decanoyl(10-(4-HOOC-PhO))])GGPSSGAPPPS-NH2 [Example 379]: the cAMP EC50 is 0.171 nM and the cAMP Emax was determined as 104%.

Take B1: the cAMP EC50 came out at 0.301 nM and the cAMP Emax turned out to be 89.8%.

B2 registered a cAMP EC50 of 0.291 nM and a cAMP Emax of 108%.

B3 registered a cAMP EC50 of 0.308 nM and a cAMP Emax of 98.2%.

As for B4, the cAMP EC50 amounted to 0.166 nM and the cAMP Emax came to 98.9%.

B5: the cAMP EC50 turned out to be 0.329 nM and the cAMP Emax came to 101%.

B6: the cAMP EC50 amounted to 0.279 nM and the cAMP Emax is 89.6%.

Take B7: the cAMP EC50 was found to be 0.189 nM and the cAMP Emax turned out to be 100%.

The target of the next assay is human glucagon receptor (human) (UniProt P47871). Kind of assay: cell-based or functional assay.
As for Y[Aib]EGT[αMePhe(2-F)]TSDV[Aib]I[αMeL]LD[Orn]K([AEEA-γGlu-Decanoyl(10-(4-HOOC-PhO))])AQ[Aib]EFI[dE][αMeY]LIK([AEEA-γGlu-Decanoyl(10-(4-HOOC-PhO))])GGPSSGAPPPS-NH2 [Example 379], the cAMP EC50 was greater than 9950 nM.

For the molecule B1, the cAMP EC50 was greater than 9950 nM.

The molecule B2 gave a cAMP EC50 greater than 9950 nM.

The molecule B3 came in with a cAMP EC50 greater than 9950 nM.

In turn, B4 gave a cAMP EC50 greater than 9950 nM.

For the molecule B5, the cAMP EC50 was greater than 9950 nM.

As to B6, the cAMP EC50 is greater than 9950 nM.

On to B7, for which the cAMP EC50 is greater than 9950 nM.

(Values after US20230265151A1, “GIP/GLP1 CO-AGONIST COMPOUNDS” (priority 2020, published 2023).)
